Source: patent publication US10472605B2, “Serum-free medium” (National University of Ireland, Galway, priority 2014, dated 2019)

B1: FGF4: fibroblast growth factor 4 (protein, UniProt P08620 31-206, looked up)
Fibroblast growth factor 4: APTAPNGTLEAELERRWESLVALSLARLPVAAQPKEAAVQSGAGDYLLGIKRLRRLYCNVGIGFHLQALPDGRIGGAHADTRDSLLELSPVERGVVSIFGVASRFFVAMSSKGKLYGSPFFTDECTFKEILLPNNYNAYESYKYPGMFIALSKNGKTKKGNRVSPTMKVTHFLPRL
B2: vitronectin: extra-cellular matrix attachment factor used to pre-coat flasks (protein, UniProt P04004 20-478, looked up)
Vitronectin: DQESCKGRCTEGFNVDKKCQCDELCSYYQSCCTDYTAECKPQVTRGDVFTMPEDEYTVYDDGEEKNNATVHEQVGGPSLTSDLQAQSKGNPEQTPVLKPEEEAPAPEVGASKPEGIDSRPETLHPGRPQPPAEEELCSGKPFDAFTDLKNGSLFAFRGQYCYELDEKAVRPGYPKLIRDVWGIEGPIDAAFTRINCQGKTYLFKGSQYWRFEDGVLDPDYPRNISDGFDGIPDNVDAALALPAHSYSGRERVYFFKGKQYWEYQFQHQPSQEECEGSSLSAVFEHFAMMQRDSWEDIFELLFWGRTSAGTRQPQFISRDWHGVPGQVDAAMAGRIYISGMAPRPSLAKKQRFRHRNRKGYRSQRGHSRGRNQNSRRPSRATWLSLFSSEESNLGANNYDDYRMDWLVPATCEPIQSVFFFSGDKYYRVNLRTRRVDTVDPPYPRSIAQYWLGCPAPGHL

Experiments:
MSC [1] = experiment: Growth/proliferation of MSC isolated in 10% FBS and re-attached under serum-free conditions; format: cell-based; conditions: 5 ng/ml; over 3 passages, days 5, 10 and 15; fibronectin-coated
Procedure: Tissue culture flasks were pre-coated with FN (black), HA (blue), VN (red) or LN (green) and cells were allowed to adhere in serum-free conditions. Cell numbers were obtained after 5 days. Controls include serum-free plating without the presence of an ECM attachment factor and 10% FBS (grey). Results are representative of 3 biological replicates with n=2;
Cells were then cultured in the presence of growth factors and passaged every 5 days. Controls include serum free plating without growth factors and 10% FBS. Results are representative of 3 biological replicates with n=2;
Cells were then cultured in serum-free media containing FGF2 (5 ng/ml) in the presence of PGE2, cholesterol or lipoprotein for 5 days. Controls include serum free plating without growth factors 10% FBS (A). Cells were then cultured in the presence of lipoprotein and passaged every 5 days for 3 passages, controls include serum free plating without lipoprotein (B). Results are representative of 3 biological replicates with n=2;
(§1) Proliferation of the MSC attached in the presence of basic fibroblast growth factor (bFGF2, FGF2) was also assessed after 6 days.
Serum-free basal medium formulation was selected based on the literature describing low-serum cell culture of dental pulp stem cells (Tarle et al., 2010). […]

MSC [2] = experiment: Attachment of MSC isolated in 10% FBS and re-attached under serum-free conditions; format: cell-based; conditions: after 18 hours in a serum-free environment; vitronectin 0.5 μg/ml pre-coating
Text: Tissue culture flasks were pre-coated with fibronectin (FN; black), hylauronic acid (HA; blue), vitronectin (VN; red) or laminin (LN; green) and cells were allowed to adhere in serum-free conditions. Controls include serum-free plating without the presence of an extra-cellular matrix (ECM) attachment factor and 10% FBS (grey). Results are representative of 3 biological replicates with n=2;
MSC were attached on tissue culture flasks in the presence of EGF (red) or on tissue culture plastic precoated with FN (purple) or in the presence of EGF on fibronectin coated plastic (green) and passaged every 3 days. Controls include serum free plating without the presence of an ECM attachment factor (blue) and 10% FBS (black). Results are representative of 3 biological replicates with n=2;
as §1

Molecule	MSC proliferation in serum free medium (MSC [1])	MSC attachment (MSC [2])
B1	increased MSC proliferation	
B2		supported MSC attachment optimally
